From US20250263467A1 (VIR BIOTECHNOLOGY, published 2025)

B1: S315 rIgG1-LS (antibody, V domains shown)
VH: EVQLVESGGGLVQPGGSLRLSCAASGFTFSNYWMTWVRQAPGKGLEWVANIKQDGSEKYYVDSVKGRFTISRDNAKNSLYLQMNSLRAEDTAVYYCARDLWWNDQAHYYGMDVWGQGTTVTVSS
VL: SYELTQPPSVSVSPGQTARITCSGDAFPNQYAYWYQQKPGQAPVMLIYKDSERPSGIPERFFGSSSGTTVTLTIRGVQAEDEADYYCQSADSSGTVFGGGTKLTVL
B2: SARS-CoV-2 S303-v1 (antibody, V domains shown)
VH: EVQLVESGGGLVKPGGSLRLSCAASGFTFLTYSMNWVRQTPGKRLQWVSAISGSGGATYYADSVKGRFTISRDNSKNTLYLQMNTVTADDTAIYFCARERDDIFPMGLNAFDIWGQGAMVIVSS
VL: DIQMTQSPSTLSASVGDRVTITCRASQSISNWLAWYQQKPGKAPKLLIYKASSLESGVPSRFSGSGSGTEFTLTISSLQPDDSATYYCQQYDTYSWTFGQGTKVEIK
B3: S303 rIgG1 (antibody, V domains shown)
VH: B2 VH
VL: B2 VL
B4: SARS-CoV-2 S308-v1 (antibody, V domains shown)
VH: QVQLVESGGGVVQPGRSLRLSCAASRFTFSSYGMHWVRQAPGKGLEWVAVIWHDGNNKHYGDSVKGRVTISRDNSKNTLYLQMTSLRAEDTAVYYCARAVTTFKGSGRARMRGMDVWGQGTTVTVSS
VL: DIQLTQSPSFLSASVGDRVTITCRASQGINTYLAWYQQKPGKAPKLLIYAASTLQSGVPSRFSGSGSGTEFTLTISSLQPEDFATYYCQHLDTYPFTFGPGTKVDIK
B5: SARS-CoV-2 S302 (antibody, V domains shown)
VH: QVQLVESGGGVVQPGRSLRLSCAASGFTFSSYGMHWVRQAPGKGLEWVAVISYDGSNKYYADSVKGRFTISRDNSKNTLYLQMNSLRAEDTAVYYCAKDISSGWDRVFDYWGQGTLVTVSS
VL: EILLTQSPGTLSLSPGERATLSCRTSQSVGSSYLAWYQQKPGQAPRLLIYAASSRAIGIPDRFSGSGSGTDFTLTISRLEPEDFAVYYCQQYGSSPWTFGQGTKVEIK
B6: S304 rIgG1 (antibody, V domains shown)
VH: EVQLVESGGGLVQPGGSLRLSCAASGFTFSSYDMHWVRQTTGKGLEWVSTIGTAGDTYYPDSVKGRFTISREDAKNSLYLQMNSLRAGDTAVYYCARGDSSGYYYYFDYWGQGTLLTVSS
VL: DIQMTQSPSSLSAAVGDRVTITCRASQSIGSYLNWYQQKPGKAPKLLIYAASSLQSGVPSRFSGSGSGTDFTLTISSLQPEDFAIYYCQQSYVSPTYTFGPGTKVDIK

Key:
[1] = target: SARS-CoV-2 Spike protein on pseudotyped virus (SARS-CoV-2 (Wuhan-Hu-1), UniProt P0DTC2 14-1273); assay: cell-based or functional assay
[2] = target: SARS-CoV-2 RBD with a Strep Tag II (SARS-CoV-2, UniProt P0DTC2 331-550); assay: BLI (Octet), RBD-Strep Tag II captured, antibody from B cell supernatant
[3] = target: SARS-CoV-2 S protein (strain BetaCoV/Wuhan-Hu-1/2019) expressed on transfected cells (SARS-CoV-2 (Wuhan-Hu-1), UniProt P0DTC2 14-1273); assay: flow cytometry, B cell supernatant on S-transfected ExpiCHO cells
[4] = target: His-tagged RBD of SARS-CoV-2 (SARS-CoV-2 (Wuhan-Hu-1), UniProt P0DTC2 331-550); assay: BLI (Octet), His-tagged RBD on anti-HIS sensors, antibody in solution
[5] = target: SARS-CoV-2 RBD (residues 331-550 of spike from BetaCoV/Wuhan-Hu-1/2019, produced in house in Expi-CHO cells) (SARS-CoV-2 (Wuhan-Hu-1), UniProt P0DTC2 331-550); assay: BLI (Octet), antibody on protein A sensors, RBD in solution
[6] = target: SARS-CoV-1 RBD (Sino Biological) (SARS-CoV-1, UniProt P59594 306-527); assay: as above

Binder | binding result [3] | binding result [6] | also measured
B1 | – | – | IC50, neutralization of SARS-CoV-2pp on DBT-ACE2 cells (further assay) [1]: 25.1 µg/mL
B2 | binds | – | binding result [2]: binds
B3 | – | binds | binding result [4]: binds; binding result [5]: binds
B4 | binds | – | –
B5 | binds | – | –
B6 | – | binds | IC50, neutralization of SARS-CoV-2pp on DBT-ACE2 cells [1]: ~17 µg/mL
